Measurements published in publication PMC13245265.

Target: Tectus dentatus superoxide dismutase 1 (Tectus dentatus)
Test: SEC

## Tectus dentatus superoxide dismutase 1 (enzyme)
  stoichiometry N: 2
